Data published in PMC9001700 (Communications Biology, 2022).

Biological target: SARS-CoV-2 S6P (SARS-CoV-2, Wuhan-Hu-1 (assumed), UniProt P0DTC2, stabilised, biotinylated (site not stated))
Test: BLI
Settings: both partners purified

B1: B6 mAb (antibody, V domains shown)
VH: EVQLQQSGPVLVKPGASVRMSCKASGYTITDYYLNWVKQSHGKSLEWLGVLNPYSGGSLYSQTFKGKATLTVDRSSSTAYLELNSLTSEDSAVYYCARQLGRGNGLDYWGQGTSVTVSS
VL: NIMMTQSPSSLAVSAGEKVTMSCKSSQSVLHSSDQKNYLAWYQQKPGQSPKLLIYWASTRESGVPDRFTGSGSGTDFTLTISSVQAEDLAVYFCHQYLSSYTFGGGTKLEIK
notes: source: 293 cells, purified using protein A resin
binding result: binds

B2: CV3-25 Fab (Fab, V domains shown)
VH: QVQLVESGAEVKKPGESLKISCKGSGYTFTRYWIGWVRQMPGKGLEWMGIIYPGDSDTRYSPSFQGHVTISADKSISTAYLQWNSLKASDTAMYYCARLPQYCSNGVCQRWFDPWGQGTLVTVSS
VL: EIVLTQSPSSVSASVGDRVTITCRASQGISSWLAWYQQKPGKAPKLLIYAASSLQSGVPSRFSGSGSGTDFTLTISSLQPEDFATYYCQQGNSFPYTFGQGTNLEIK
notes: also called monovalent Fab
Kd: ~0.6 nM
